Values of other authors in patent US9408889B2, “Fusion peptide designed to reduce plaque bacteria and yeast in the oral cavity” (RUTGERS, THE STATE UNIVERSITY OF NEW JERSEY, priority 2011, dated 2016).

Test system: Streptococcus mutans
Details: full length Lf variant expressed in an insect vector

B1: arginine variant: full length lactoferrin (Lf) variant with arginine at position 29, the more common variant (protein, UniProt P02788 1-710, looked up)
chain: MKLVFLVLLFLGALGLCLAGRRRSVQWCAVSQPEATKCFQWQRNMRKVRGPPVSCIKRDSPIQCIQAIAENRADAVTLDGGFIYEAGLAPYKLRPVAAEVYGTERQPRTHYYAVAVVKKGGSFQLNELQGLKSCHTGLRRTAGWNVPIGTLRPFLNWTGPPEPIEAAVARFFSASCVPGADKGQFPNLCRLCAGTGENKCAFSSQEPYFSYSGAFKCLRDGAGDVAFIRESTVFEDLSDEAERDEYELLCPDNTRKPVDKFKDCHLARVPSHAVVARSVNGKEDAIWNLLRQAQEKFGKDKSPKFQLFGSPSGQKDLLFKDSAIGFSRVPPRIDSGLYLGSGYFTAIQNLRKSEEEVAARRARVVWCAVGEQELRKCNQWSGLSEGSVTCSSASTTEDCIALVLKGEADAMSLDGGYVYTAGKCGLVPVLAENYKSQQSSDPDPNCVDRPVEGYLAVAVVRRSDTSLTWNSVKGKKSCHTAVDRTAGWNIPMGLLFNQTGSCKFDEYFSQSCAPGSDPRSNLCALCIGDEQGENKCVPNSNERYYGYTGAFRCLAENAGDVAFVKDVTVLQNTDGNNNEAWAKDLKLADFALLCLDGKRKPVTEARSCHLAMAPNHAVVSRMDKVERLKQVLLHQQAKFGRNGSDCPDKFCLFQSETKNLLFNDNTECLARLHGKTTYEKYLGPQYVAGITNLKKCSTSPLLEACEFLRK
modifications: full-length
notes: full length lactoferrin (Lf) variant with arginine at position 29, the more common variant
- effect on survival of S. mutans: little to no effect
